IntAct's records for PubMed 19805355

B1: ATP-sensitive inward rectifier potassium channel 11 (Homo sapiens), Q14654 (parent)
chain: MLSRKGIIPEEYVLTRLAEDPAKPRYRARQRRARFVSKKGNCNVAHKNIREQGRFLQDVFTTLVDLKWPHTLLIFTMSFLCSWLLFAMAWWLIAFAHGDLAPSEGTAEPCVTSIHSFSSAFLFSIEVQVTIGFGGRMVTEECPLAILILIVQNIVGLMINAIMLGCIFMKTAQAHRRAETLIFSKHAVIALRHGRLCFMLRVGDLRKSMIISATIHMQVVRKTTSPEGEVVPLHQVDIPMENGVGGNSIFLVAPLIIYHVIDANSPLYDLAPSDLHHHQDLEIIVILEGVVETTGITTQARTSYLADEILWGQRFVPIVAEEDGRYSVDYSKFGNTVKVPTPLCTARQLDEDHSLLEALTLASARGPLRKRSVPMAKAKPKFSISPDSLS

Variants of: B1
Settings: with ank2_human ANK2, Q01484
Chain of ank2_human ANK2, Q01484 (Q01484 whole entry): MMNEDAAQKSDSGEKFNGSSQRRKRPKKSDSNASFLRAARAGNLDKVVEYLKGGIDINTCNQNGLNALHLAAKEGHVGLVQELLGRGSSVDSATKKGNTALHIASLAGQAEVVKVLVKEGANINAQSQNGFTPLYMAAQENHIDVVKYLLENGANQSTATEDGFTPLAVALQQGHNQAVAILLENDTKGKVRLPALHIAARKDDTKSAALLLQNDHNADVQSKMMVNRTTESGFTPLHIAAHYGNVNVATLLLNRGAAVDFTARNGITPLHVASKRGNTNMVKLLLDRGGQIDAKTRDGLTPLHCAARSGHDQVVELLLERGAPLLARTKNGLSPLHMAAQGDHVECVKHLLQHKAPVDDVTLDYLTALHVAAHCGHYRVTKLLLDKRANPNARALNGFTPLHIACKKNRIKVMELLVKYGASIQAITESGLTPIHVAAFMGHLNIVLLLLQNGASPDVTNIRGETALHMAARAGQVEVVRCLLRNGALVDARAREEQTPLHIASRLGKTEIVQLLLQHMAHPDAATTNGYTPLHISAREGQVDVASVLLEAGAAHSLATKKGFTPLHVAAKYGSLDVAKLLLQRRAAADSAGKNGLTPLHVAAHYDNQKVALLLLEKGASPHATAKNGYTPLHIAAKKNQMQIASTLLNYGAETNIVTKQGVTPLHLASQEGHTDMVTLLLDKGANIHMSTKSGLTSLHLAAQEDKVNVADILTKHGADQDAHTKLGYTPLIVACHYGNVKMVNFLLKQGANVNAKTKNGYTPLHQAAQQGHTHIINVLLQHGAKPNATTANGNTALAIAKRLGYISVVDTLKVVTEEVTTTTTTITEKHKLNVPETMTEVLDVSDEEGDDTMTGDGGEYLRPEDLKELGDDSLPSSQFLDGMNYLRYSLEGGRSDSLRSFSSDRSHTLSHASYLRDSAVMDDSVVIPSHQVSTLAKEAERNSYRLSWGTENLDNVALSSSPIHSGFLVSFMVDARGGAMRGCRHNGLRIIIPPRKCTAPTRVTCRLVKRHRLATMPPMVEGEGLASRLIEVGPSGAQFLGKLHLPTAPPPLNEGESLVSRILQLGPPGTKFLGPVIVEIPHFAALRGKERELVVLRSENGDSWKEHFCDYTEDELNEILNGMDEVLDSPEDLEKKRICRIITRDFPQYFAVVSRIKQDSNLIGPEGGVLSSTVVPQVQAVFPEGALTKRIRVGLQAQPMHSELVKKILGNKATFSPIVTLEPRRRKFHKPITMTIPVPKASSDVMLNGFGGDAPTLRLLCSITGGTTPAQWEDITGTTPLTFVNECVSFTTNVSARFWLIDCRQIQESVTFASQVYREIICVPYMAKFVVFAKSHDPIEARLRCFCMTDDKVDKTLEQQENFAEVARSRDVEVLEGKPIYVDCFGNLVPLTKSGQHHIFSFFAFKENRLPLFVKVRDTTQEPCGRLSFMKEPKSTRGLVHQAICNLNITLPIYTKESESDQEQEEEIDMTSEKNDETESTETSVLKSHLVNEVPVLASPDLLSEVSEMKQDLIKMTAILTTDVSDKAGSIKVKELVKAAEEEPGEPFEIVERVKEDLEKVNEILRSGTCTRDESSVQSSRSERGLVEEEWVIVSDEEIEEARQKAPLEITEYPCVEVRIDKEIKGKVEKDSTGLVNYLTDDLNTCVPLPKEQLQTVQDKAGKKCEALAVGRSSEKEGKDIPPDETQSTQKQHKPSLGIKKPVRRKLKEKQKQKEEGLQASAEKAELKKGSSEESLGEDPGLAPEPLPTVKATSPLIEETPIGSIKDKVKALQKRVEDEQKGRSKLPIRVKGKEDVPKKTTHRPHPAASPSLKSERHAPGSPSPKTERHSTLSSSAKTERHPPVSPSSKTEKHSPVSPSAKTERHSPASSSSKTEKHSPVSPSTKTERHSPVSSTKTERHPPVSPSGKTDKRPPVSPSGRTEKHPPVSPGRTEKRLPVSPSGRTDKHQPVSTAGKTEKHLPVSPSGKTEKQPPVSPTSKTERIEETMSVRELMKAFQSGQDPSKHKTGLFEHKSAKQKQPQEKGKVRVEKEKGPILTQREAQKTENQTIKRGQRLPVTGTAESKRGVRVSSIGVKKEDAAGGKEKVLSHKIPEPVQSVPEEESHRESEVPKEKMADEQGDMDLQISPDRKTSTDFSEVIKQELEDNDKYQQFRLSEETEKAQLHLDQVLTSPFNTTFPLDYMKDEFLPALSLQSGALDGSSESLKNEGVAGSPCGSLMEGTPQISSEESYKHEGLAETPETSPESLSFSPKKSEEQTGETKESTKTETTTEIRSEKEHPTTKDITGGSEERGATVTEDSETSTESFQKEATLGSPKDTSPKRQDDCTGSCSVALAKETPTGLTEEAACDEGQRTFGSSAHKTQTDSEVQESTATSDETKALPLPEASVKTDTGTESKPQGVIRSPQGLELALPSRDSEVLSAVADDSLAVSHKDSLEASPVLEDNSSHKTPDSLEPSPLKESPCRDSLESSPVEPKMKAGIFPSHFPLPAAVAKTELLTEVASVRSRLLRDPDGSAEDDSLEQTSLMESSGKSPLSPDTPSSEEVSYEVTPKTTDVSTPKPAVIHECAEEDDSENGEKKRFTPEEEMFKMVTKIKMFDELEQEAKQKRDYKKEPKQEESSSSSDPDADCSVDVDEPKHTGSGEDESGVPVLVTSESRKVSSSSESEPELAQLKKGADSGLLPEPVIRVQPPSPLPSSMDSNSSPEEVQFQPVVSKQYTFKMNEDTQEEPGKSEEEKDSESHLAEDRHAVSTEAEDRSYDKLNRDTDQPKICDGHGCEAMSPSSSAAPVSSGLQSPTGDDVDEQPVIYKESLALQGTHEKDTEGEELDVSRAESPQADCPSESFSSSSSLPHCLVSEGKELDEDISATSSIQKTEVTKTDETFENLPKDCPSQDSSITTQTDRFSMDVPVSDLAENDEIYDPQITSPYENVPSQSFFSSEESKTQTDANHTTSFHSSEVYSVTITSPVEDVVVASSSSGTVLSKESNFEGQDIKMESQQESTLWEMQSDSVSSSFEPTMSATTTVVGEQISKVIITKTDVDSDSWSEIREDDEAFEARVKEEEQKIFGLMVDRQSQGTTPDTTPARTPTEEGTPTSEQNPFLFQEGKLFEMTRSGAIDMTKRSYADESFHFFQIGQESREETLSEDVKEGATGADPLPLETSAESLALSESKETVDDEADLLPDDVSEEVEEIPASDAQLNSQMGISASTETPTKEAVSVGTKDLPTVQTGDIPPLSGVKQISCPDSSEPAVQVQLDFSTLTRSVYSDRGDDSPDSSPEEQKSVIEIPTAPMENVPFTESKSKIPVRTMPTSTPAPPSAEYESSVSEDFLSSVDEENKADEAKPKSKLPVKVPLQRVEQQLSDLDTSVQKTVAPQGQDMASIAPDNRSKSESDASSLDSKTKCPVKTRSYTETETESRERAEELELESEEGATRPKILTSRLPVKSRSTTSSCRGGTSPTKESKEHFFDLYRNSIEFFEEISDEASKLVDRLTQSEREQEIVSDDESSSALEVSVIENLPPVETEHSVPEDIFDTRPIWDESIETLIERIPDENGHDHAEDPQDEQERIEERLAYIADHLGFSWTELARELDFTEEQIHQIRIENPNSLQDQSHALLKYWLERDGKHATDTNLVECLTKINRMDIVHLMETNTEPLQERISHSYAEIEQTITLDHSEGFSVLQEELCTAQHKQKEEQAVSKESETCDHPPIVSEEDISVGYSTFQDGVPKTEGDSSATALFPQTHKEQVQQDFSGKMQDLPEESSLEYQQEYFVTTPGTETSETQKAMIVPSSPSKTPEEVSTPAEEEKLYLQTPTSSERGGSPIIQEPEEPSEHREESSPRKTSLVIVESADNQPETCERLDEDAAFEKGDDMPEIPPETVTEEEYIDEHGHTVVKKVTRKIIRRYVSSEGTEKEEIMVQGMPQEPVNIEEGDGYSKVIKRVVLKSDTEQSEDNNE

Row | effect of a mutation on the interaction | Variant
1 | decreasing interaction | MLSRKGIIPEEYVLTRLAEDPAKPRYRARQRRARFVSKKGNCNVAHKNIREQGRFLQDVFTTLVDLKWPHTLLIFTMSFLCSWLLFAMAWWLIAFAHGDLAPSEGTAEPCVTSIHSFSSAFLFSIEVQVTIGFGGRMVTEECPLAILILIVQNIVGLMINAIMLGCIFMKTAQAHRRAETLIFSKHAVIALRHGRLCFMLRVGDLRKSMIISATIHMQVVRKTTSPEGEVVPLHQVDIPMENGVGGNSIFLVAPLIIYHVIDANSPLYDLAPSDLHHHQDLEIIVILEGVVETTGITTQARTSYLADEILWGQRFVPIVAEKDGRYSVDYSKFGNTVKVPTPLCTARQLDEDHSLLEALTLASARGPLRKRSVPMAKAKPKFSISPDSLS [E322K]

Variants of: B1
Settings: with ank2_human ANK2, Q01484
Remark: another data set of the same source

Row | effect of a mutation on the interaction | Variant
2 | disrupting interaction | MLSRKGIIPEEYVLTRLAEDPAKPRYRARQRRARFVSKKGNCNVAHKNIREQGRFLQDVFTTLVDLKWPHTLLIFTMSFLCSWLLFAMAWWLIAFAHGDLAPSEGTAEPCVTSIHSFSSAFLFSIEVQVTIGFGGRMVTEECPLAILILIVQNIVGLMINAIMLGCIFMKTAQAHRRAETLIFSKHAVIALRHGRLCFMLRVGDLRKSMIISATIHMQVVRKTTSPEGEVVPLHQVDIPMENGVGGNSIFLVAPLIIYHVIDANSPLYDLAPSDLHHHQDLEIIVILEGVVETTGITTQARTSYLADEILWGQRFVPIVAEKDGRYSVDYSKFGNTVKVPTPLCTARQLDEDHSLLEALTLASARGPLRKRSVPMAKAKPKFSISPDSLS [E322K]
3 | disrupting interaction | MLSRKGIIPEEYVLTRLAEDPAKPRYRARQRRARFVSKKGNCNVAHKNIREQGRFLQDVFTTLVDLKWPHTLLIFTMSFLCSWLLFAMAWWLIAFAHGDLAPSEGTAEPCVTSIHSFSSAFLFSIEVQVTIGFGGRMVTEECPLAILILIVQNIVGLMINAIMLGCIFMKTAQAHRRAETLIFSKHAVIALRHGRLCFMLRVGDLRKSMIISATIHMQVVRKTTSPEGEVVPLHQVDIPMENGVGGNSIFLVAPLIIYHVIDANSPLYDLAPSDLHHHQDLEIIVILEGVVETTGITTQARTSYLADEILWGQRFVPIVAEEKGRYSVDYSKFGNTVKVPTPLCTARQLDEDHSLLEALTLASARGPLRKRSVPMAKAKPKFSISPDSLS [D323K]
4 | disrupting interaction | MLSRKGIIPEEYVLTRLAEDPAKPRYRARQRRARFVSKKGNCNVAHKNIREQGRFLQDVFTTLVDLKWPHTLLIFTMSFLCSWLLFAMAWWLIAFAHGDLAPSEGTAEPCVTSIHSFSSAFLFSIEVQVTIGFGGRMVTEECPLAILILIVQNIVGLMINAIMLGCIFMKTAQAHRRAETLIFSKHAVIALRHGRLCFMLRVGDLRKSMIISATIHMQVVRKTTSPEGEVVPLHQVDIPMENGVGGNSIFLVAPLIIYHVIDANSPLYDLAPSDLHHHQDLEIIVILEGVVETTGITTQARTSYLADEILWGQRFVPIVAKEDGRYSVDYSKFGNTVKVPTPLCTARQLDEDHSLLEALTLASARGPLRKRSVPMAKAKPKFSISPDSLS [E321K]
